# Measured values reported in paper PMC11574045, “A cofactor-induced repressive type of transcription factor condensation can be induced by synthetic peptides to suppress tumorigenesis” (The EMBO Journal, 2024).
# B1: CCNH (protein, UniProt P51946 1-323, looked up)
# Cyclin-H: MYHNSSQKRHWTFSSEEQLARLRADANRKFRCKAVANGKVLPNDPVFLEPHEEMTLCKYYEKRLLEFCSVFKPAMPRSVVGTACMYFKRFYLNNSVMEYHPRIIMLTCAFLACKVDEFNVSSPQFVGNLRESPLGQEKALEQILEYELLLIQQLNFHLIVHNPYRPFEGFLIDLKTRYPILENPEILRKTADDFLNRIALTDAYLLYTPSQIALTAILSSASRAGITMESYLSESLMLKENRTCLSQLLDIMKSMRNLVKKYEPPRSEEVAVLKQKLERCHSAELALNVITKKRKGYEDDDYVSKKSKHEEEEWTDDDLVESL
# B2: ZNF484 (protein, UniProt Q5JVG2 1-852, looked up)
# Zinc finger protein 484: MTKSLESVSFKDVTVDFSRDEWQQLDLAQKSLYREVMLENYFNLISVGCQVPKPEVIFSLEQEEPCMLDGEIPSQSRPDGDIGFGPLQQRMSEEVSFQSEININLFTRDDPYSILEELWKDDEHTRKCGENQNKPLSRVVFINKKTLANDSIFEYKDIGEIVHVNTHLVSSRKRPHNCNSCGKNLEPIITLYNRNNATENSDKTIGDGDIFTHLNSHTEVTACECNQCGKPLHHKQALIQQQKIHTRESLYLFSDYVNVFSPKSHAFAHESICAEEKQHECHECEAVFTQKSQLDGSQRVYAGICTEYEKDFSLKSNRQKTPYEGNYYKCSDYGRAFIQKSDLFRCQRIHSGEKPYEYSECEKNLPQNSNLNIHKKIHTGGKHFECTECGKAFTRKSTLSMHQKIHTGEKPYVCTECGKAFIRKSHFITHERIHTGEKPYECSDCGKSFIKKSQLHVHQRIHTGENPFICSECGKVFTHKTNLIIHQKIHTGERPYICTVCGKAFTDRSNLIKHQKIHTGEKPYKCSDCGKSFTWKSRLRIHQKCHTGERHYECSECGKAFIQKSTLSMHQRIHRGEKPYVCTECGKAFFHKSHFITHERIHTGEKPYECSICGKSFTKKSQLHVHQQIHTGEKPYRCAECGKAFTDRSNLFTHQKIHTGEKPYKCSDCGKAFTRKSGLHIHQQSHTGERHYECSECGKAFARKSTLIMHQRIHTGEKPYICNECGKSFIQKSHLNRHRRIHTGEKPYECSDCGKSFIKKSQLHEHHRIHTGEKPYICAECGKAFTIRSNLIKHQKIHTKQKPYKCSDLGKALNWKPQLSMPQKSDNGEVECSMPQLWCGDSEGDQGQLSSI
# B3: ZNF501 (protein, UniProt Q96CX3 1-271, looked up)
# Zinc finger protein 501: MNSSQISLRMKHGRVNMQKKPSKCSECGKFFTQRSSLTQHQRIHRGEKPYVCSECGSCFRKQSNLTQHLRIHTGEKPYKCNECEKAFQTKAILVQHLRIHTGEKPYKCNECGKAFCQSPSLIKHQRIHTGEKPYKCTECGKAFSQSICLTRHQRSHSGDKPFKCNECGKAFNQSACLMQHQRIHSGEKPYTCTECGKAFTQNSSLVEHERTHTGEKLYKCSECEKTFRKQAHLSEHYRIHTGEKPYECVGCGKSFRHSSALLRHQRLHAGE
# B4: ZNF488 (protein, UniProt Q96MN9 1-340, looked up)
# Zinc finger protein 488: MPEWPPCLSVAPALVITMAAGKGAPLSPSAENRWRLSEPELGRGCKPVLLEKTNRLGPEAAVGRAGRDVGSAELALLVAPGKPRPGKPLPPKTRGEQRQSAFTELPRMKDRQVDAQAQEREHDDPTGQPGAPQLTQNIPRGPAGSKVFSVWPSGARSEQRSAFSKPTKRPAERPELTSVFPAGESADALGELSGLLNTTDLACWGRLSTPKLLVGDLWNLQALPQNAPLCSTFLGAPTLWLEHTQAQVPPPSSSSTTSWALLPPTLTSLGLSTQNWCAKCNLSFRLTSDLVFHMRSHHKKEHAGPDPHSQKRREEALACPVCQEHFRERHHLSRHMTSHS
# System: HEK293FT cells transfected with TF library
# Assay: Screening of TF condensates based on fluorescent puncta
# Type: cell-based
# Conditions: Figure 1B numerical data; TF library screen, one value per transcriptional factor
# Method in brief: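 Cells were seeded onto plasmid/PEI-loaded wells (plasmid 1.6 μg/ml final) and grown 60 h. Medium with or without glucose followed for 12 h. Fixed, permeabilized cells were stained against Flag or GAL4 tags, and condensate puncta were quantified from 50 random fields per well.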
row,Molecule,Z score of condensed fraction
1,B1,-0.9342
2,B2,-0.5495
3,B3,-1.032
4,B4,-0.1473
